Source: the nanobody polyreactivity screen of Harvey et al. (2022)

Assay: yeast display, Sf9 membrane polyspecificity reagent, FACS + sequencing; frameworks hold sequencing errors
In short: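 Galactose-induced (36–48 hours) yeast carrying a synthetic nanobody display library were exposed to 10% biotinylated, detergent-solubilized Sf9 membrane reagent at 4 °C for 1 hour. FACS followed streptavidin microbead enrichment, using low and high (top ~1%) gates for expression (anti-HA) and reagent binding (streptavidin). Colony PCR, MiSeq 2 × 250 sequencing and CDR-length filtering followed. Labels for polyreactivity reflect the gate of origin.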

| Sequence | polyreactivity (PSR sort gate) |
| --- | --- |
| QVQLVESGGGLVQAGGSLRLSCAASGNTLDAYTMGWYRQAPGKERELVAAISRGGTRTYYADSVKGRFTISRDNAKNTVYLQMNSLKPEDTAVYYCNKQFPYSKYYIMGYWGQGTQVTVSS | high polyreactivity |
| QVQLVESGGGLVQAGGSLRLSCAASGSIFPYAMGWYRQAPGKERELVAAITSGVRTNYADSVKGRFTISRDNAKNTVYLQIYSLKPEDTAVYYCAARYFPHYYSKYDYWGQGTQVTVSS | low polyreactivity |
| QVQLQVSGGDLVQAGGSLRLSCAASGTIYGLTAMGWYRLAPGKEREFVAAITDGGNTNYADSVKGRFTISRDNAINTVYLQMISLKPEDTAVYYCAVLFSDDAYYAYWGQGTQVTVSS | low polyreactivity |
| QVQLVESGGGLVQAGGSLRLSCAASGVTFNYNAMGWYRQAPGKERELVATITGSTYYADSVKGRFTISRDNAKNTVYLQMNSLKPEDTAVYYCTADASLVLAEYDYWGQGTQVTVSS | low polyreactivity |
| QVQLVQSGGGLVQAGGSLRLSCAASGFIIWDNAMGCYRQAPGKERELVAAISDSGGDTYYADSVKGRFTISRDNAKNTVYLQMNSLKPEDTAVYYCASDVELWVFRGDQYDYWGQGTQVTVSS | low polyreactivity |
| QVQLVESGGGLDQPGGSLRLSCAASGRIFRTYAMGWYRQAPGKQRELVAAINSVHRTYYADSVKGRFTITRDNAKNTVNLQMYCQKPEDSAVYYCNARYVLKVSQYGYWGQGTQVTVSS | high polyreactivity |
| QVQLVESGAGLVQAGGSLRLSCAASGSIFWYNAMGWYRQAPGKERELVAAITSGGTTSYADSVKGRFTISRDNAKNTVYLQMNSLKPEDTAVYYCNADAVPFPTLVTYLYDYWGQGTQVSVSS | low polyreactivity |
| QVQLVESGGGLVQAGGSLRLSCAASGGTFSNYAMGWYIPAPGKERELVAAITSGGGSTYYADSVKGRFTISRDNAKNTVYLQMNSLKPEDTAVYYCAARRSSYGYWGQGTQVTVSS | high polyreactivity |
| QVQLVESGGGLVQAGGSLRLSCAASGRTLVHYAMGWYRQAPGKERELVAAISYSGGRTYYADSVKGRFTISRDNAKNTVYLQMNSLKPEDTAVYYCAAEIVYPAIGGYGYWGQGTQVTVSS | low polyreactivity |
| QDQHVESGGGLVQAGGSLRLSCAASGFTIRNYAMGWYRQAPGKVMELVPAISKRGGNTYYADSVKGRFSISRDNAKNNVYLQLNSLKPEDTAVYFCAADYQFSQDVWHFGYCGQGTQVTVSS | high polyreactivity |
| QVQLVESGGGLVEAGGSLRLSCAASGRIFWGNAMGWYRPAPGKERELVAAITRGGSTNYADSVKGRFTISRDNAKNTVYLQMKSLKPEDTAVYYCAARTRSRGNSWTYDYWGQGTQVTVSS | high polyreactivity |
| QVQLVESGGGLVQAGGSLRLSCAASGSTLRRYAMGWYRQAPGTERELVASNSRGGTSTYYADSVKGRFTISRDNAKNTVYLQMKSLKPEDTAVYYCAAATPYRYNYWGQGTQVTVSS | high polyreactivity |
| QVQLVESGGGLVQAGGSLRLSCAASGSTFARNAMGWYRQAPGKERDLVAAITWSGGNTYYADSVKGRFTISRDNAKNTVYLQMNSLKPEDSAVYYCNKATRHHFYYWGQGTQVTVSS | high polyreactivity |
| QVQLVESGGGLVQAGGSLRLSCAASGRTLRYNAMGWDRQAPGKERELVAAISTRGTNTYYADSVKGRFTISRDNAKNTVYLQMNSLKPEDTAVYYCAAKKGGYPYSVYSGTRHNYWGQGTQVTVSS | high polyreactivity |
| QVQLVESGGGLVQAGGSLRLSSPASGFNFKSNCMGWYRQAPGKERELIADIRRSVGSTYYADYVKGRFTISRDNAKNTVYLQMNSLKPEDTSVYYCNAKYIKGRDWGQCTQVTVSS | high polyreactivity |
| QVQLVETAGGLVQAGGSLRLSSAASRSTFGPYAMGWYSQSPGKERELVAAISRRGTSTYYADSVKGRFTISRDNAKHTVYLQMNSLKPDDTAVYYCNAVTSSFYIRDSDYWGQGNQVTVSS | high polyreactivity |

| Sequence | polyreactivity (PSR sort gate) |
| --- | --- |
| QVQLVESGGGLVQAGGSLRLSCAASGSIFGVYAMGWYRQAPGQERELVAVITWSDGGTYYADSVKGRFTISRDNAKNTVYLQMNSLKPEDTAVYYCAKERYDYSYDYWGQGTQVTVSS | high polyreactivity |
| QVQLVESGGGLVQAGGSLRLSCAASGRIFKNYAKGWYRQAPGKERELVAAISWSGGRTYYSDSVKGRFTISRDNAKNTVYLQMNSLKPEYTAVYYCAARFRRTRVTYYYWGQGTQVTVSS | high polyreactivity |
| QVQIVESGGGLVQAGGSLRLSCAASGSTFYYNTMGWYRQAPGKERELVAAISWRRVSTYYADSVKGRFTISRDIAKNTVYFQMNSLKPEDTAVYYCNAVHHYPEHIGGGYWGQGSQVTVSS | low polyreactivity |
| QVQLVESGGGLVQAGGSLRLSCAASGSTFNYYALGGYRQAPGKERELVAAISTSDGSTYYADSVKGRFTISRDNAKITVYVQMNSLKPEDTAVYYCAADSYERFPSYYYWGQGTQVTVSS | low polyreactivity |
| QGQLVESGGGLVQAGGSLRLSCAASGSIFGENAMGWYRPAPGKERELVAAISSAGSTKYADSVKGRFTISRDNAKNTVYLQMNSLKPEDTAVYYCAAGYYRTSYPYSYYYWGQGTQVTVSS | low polyreactivity |
| QVQLVESGGRLVQAGGSLRLSCAASGRTFWFNDMGWYRQAPGKVRQLVAAISDTDGSTYYADSVKGRFTISRDNAKNSVYLQMNSLKPVDTAVYYCAPEAYYGYLYAYDYWGQGTQVTVSS | low polyreactivity |
| QVQLVESGGGLVQAGGSLRLSCAASGSIFARYAMGWYRQAPGKERELVATITRGGSTNYADSVKGRFTISRDNAKNTVYLQMNSLKPEDTAVYYCARTSYGRLDYWGQGTQVTVSS | low polyreactivity |
| QVQLVESGGGLVQAGGSLRLSCAASGRTFVVYGMGWYRQAPGKERELVATITSGGSTDYADSVKGRFTIARDNAKNTVYLQMNSLKPEDTAVYYCAKETSYTNDDDYWGQGTQVTVSS | low polyreactivity |
| QVQLVESGGGLVQAGGSLRLSCAASGRIFGYYAMGWYRQAPGKERELVATITFGGGSTYYADSVKGRFTISRDNAKNTVYLQMNSLIPEDSAVYYCAADSGYLGIYGDEYSWGQGTQVTVSS | low polyreactivity |
| QVQLVESGGRLVQAGGSLRLSCAASGSIINVNTMGWYRQAPGKERELVAAISSGGRTYYADSVKGRFTISRDNAKNTVYLQMNSLKPEDTAVYYCNTVLGVYDYDYWGQGTQVTVSS | low polyreactivity |
| QVQLVESGGGLVKAGGSLRLSCAPSGSSFYYAMGWYRQAPGKERELVAAINSGGSTNYADSVKGRFTISRDNAKNTVYLQMNSLKPEDTAVYYCAADLYGYWWSFDYDYWGQGTQVTVSS | low polyreactivity |
| QVQLVESGGGLVQAGGSLRLSCAASGITFYFNAIGWYRQAPGKDRELVAAIAWPGGSTYYADSVKGRFTISRDNAKHTVFLQMNSLKPEDTAVYYCNGVFRYWYADSWFGAYDYWGQGTQVTVSS | high polyreactivity |
| QEQLVESGGGLVQAGGSLRLSCAASGRIFPYYAMGWYRPAPGKERELVASITARGGSTYYADSVKGRFTISRDNAKNTVYLQMNSLKPEDTAVYYCATRGYAWSSDKFGYWGQGTQVTVSS | high polyreactivity |
| QVQLVESGGGLVQAGGSLRLSCAASGFTFKFNAMGWYRQAPGKERELVAAISYSGGSTYYADSVKGRFTISRDNAKNTVYLQMNSLKPEDTAVYYCAARAYWYGASYYYWGQGPQVTVSS | high polyreactivity |
| QVQLLESGGGLVQAGGSLRLSCASSGRTFRSYGMGWYRQAPGKERELVAVISWRDGSTFYADSVKGRFTISRDNAKNTVYLQMNSLKPEDTAVYYCNARGDVIVTPPKFSFKYEYWGQGTQVTVSS | low polyreactivity |
| QVQLVESGGGLVQAGGSLRLSCAASGLIFRSYAMGWYRQAPGKERELVARISIRGGSTYYADSVKGRFTISRDNAKNTVYLQLNSLKPEVTAVYYCAAVGYFGGYRYDYWGHGTQVTVSS | high polyreactivity |
